Source: US20170305994A1 (Novo Nordisk, published 2017)
Substitutions are numbered along the chain they refer to. In names and notes the source's numbering stands.

T1: human DR3 (full length, on cells) (human, UniProt Q93038 25-417)
T1 sequence: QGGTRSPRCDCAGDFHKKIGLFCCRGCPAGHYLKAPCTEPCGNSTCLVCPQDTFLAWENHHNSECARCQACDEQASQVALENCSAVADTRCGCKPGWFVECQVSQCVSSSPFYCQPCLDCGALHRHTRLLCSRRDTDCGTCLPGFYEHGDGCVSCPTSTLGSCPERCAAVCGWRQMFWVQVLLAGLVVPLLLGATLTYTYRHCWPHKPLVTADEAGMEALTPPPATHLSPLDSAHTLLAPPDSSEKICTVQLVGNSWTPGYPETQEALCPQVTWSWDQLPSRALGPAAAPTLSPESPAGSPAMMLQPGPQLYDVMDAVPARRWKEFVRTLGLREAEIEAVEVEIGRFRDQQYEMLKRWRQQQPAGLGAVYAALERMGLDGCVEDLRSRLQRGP

B1: 0170 (humanized IgG1 Fab of 0072; HC T28A S49A Y91; LC Q3A T5A S60A M4) (Fab, V domains shown)
VH: EVQLVESGGGLVQPGGSLRLSCAASGFTFSNYDMSWVRQAAGKGLEWVSAFSSDGYTFYPGAVKGRFTISRENAKNSLYLQMNSLRAGDTAVYYCARHADYANYPVMDYWGQGTLVTVSS
VL: DIAMAQSPSSLSASVGDRVTITCRASKSVSTSGYSYMHWYQQKPGKAPKLLIYLASNLEAGVPSRFSGSGSGTDFTLTISSLQPEDFATYYCQHSRELPLTFGGGTKVEIK
B2: 0173 (humanized IgG1 Fab of 0072; HC T28A S49A Y91S; LC Q3A T5A S60A M4L) (Fab, V domains shown)
VH: B1 VH with Y104S
VL: B1 VL with M4L
B3: 0171 (humanized IgG1 Fab of 0072 without back mutations) (Fab, V domains shown)
VH: B1 VH with A41T, A62S
VL: B1 VL with A3Q, A5T, A60S

Legend:
Assay in all cases: cell-based or functional assay
[1] = target: T1, human DR3 (full length, on cells)
[2] = target: T1, human DR3 (full length, on cells); remark: listed apart in the source
[3] = target: T1, human DR3 (full length, on cells); remark: listed apart in the source

| Binder | IC100 of inhibition of IFN-γ secretion, TL1A-costimulated RA synovial fluid cells [1] [µg/mL] | IFN-γ, TL1A-costimulated RA SF cells, Fab 0.003 µg/mL [2] [pg/mL] | IFN-γ, TL1A-costimulated RA SF cells, Fab 0.01 µg/mL [2] [pg/mL] | IFN-γ, TL1A-costimulated RA SF cells, Fab 0.03 µg/mL [2] [pg/mL] | IFN-γ, TL1A-costimulated RA SF cells, Fab 0.1 µg/mL [2] [pg/mL] | IFN-γ, TL1A-costimulated RA SF cells, Fab 0.3 µg/mL [2] [pg/mL] | IFN-γ, TL1A-costimulated RA SF cells, Fab 1 µg/mL [2] [pg/mL] | IFN-γ, TL1A-costimulated lymphocytes, Fab 0.003 µg/mL [3] [ng/mL] | IFN-γ, TL1A-costimulated lymphocytes, Fab 0.01 µg/mL [3] [ng/mL] | IFN-γ, TL1A-costimulated lymphocytes, Fab 0.03 µg/mL [3] [ng/mL] | IFN-γ, TL1A-costimulated lymphocytes, Fab 0.1 µg/mL [3] [ng/mL] | IFN-γ, TL1A-costimulated lymphocytes, Fab 0.3 µg/mL [3] [ng/mL] | IFN-γ, TL1A-costimulated lymphocytes, Fab 1.0 µg/mL [3] [ng/mL] |
| --- | --- | --- | --- | --- | --- | --- | --- | --- | --- | --- | --- | --- | --- |
| B1 | ~0.1 | 1790 | 1640 | 1360 | 1170 | 1300 | 1250 | 131 | 101 | 108 | 46 | 51 | 63 |
| B2 | ~0.1 | 1550 | 1230 | 1130 | 1130 | 992 | 1060 | 160 | 163 | 95 | 69 | 62 | 48 |
| B3 | ~0.1 | 1870 | 1380 | 1220 | 1140 | 1160 | 1230 | 140 | 105 | 69 | 52 | 62 | 40 |
